Results as given in the supplement of paper PMC10724198.
± gives the standard deviation of the averaged measurements.

Tested on: Saccharomyces cerevisiae
Test: protein stability index of tFT-peptide fusion (C-terminal peptide) (PSI (0-1 scale)); higher = more stable (slower turnover)
Settings: genetic background: wild type; temperature: 30 C
Procedure: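 Multiplexed protein stability (MPS) profiling in S. cerevisiae. Random 12-aa peptides (tFT-X12 library) are fused to the C-terminus of a sfGFP-mCherry tandem fluorescent timer, after mCherry and a GGGS linker. Cells are FACS-sorted into 8 mCherry/sfGFP bins and deep-sequenced. The protein stability index (PSI) is the read-weighted bin average, scaled from 0 (unstable) to 1 (stable). Only peptides with >10 reads are reported; cells were grown at 30 °C in SC-His with glucose.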
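Note: PSI is a weighted mean of sequencing reads over stability bins, variants kept only with over 10 reads, mCherry proximal and sfGFP distal, peptide attached via GGGS linker.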

| Sequence | protein stability index |
| --- | --- |
| GGLGGGRRGVGR | 0.664 ± 0.012 |
| PPLLPPPVPPVP | 0.727 ± 0.07 |
| VGVFRCLPGQVG | 0.677 ± 0.057 |
| HVAYAQSRLFYA | 0.638 ± 0.094 |
| DVRMGCVGVSNI | 0.71 ± 0.0088 |
| EKKYKKKYKKKE | 0.641 ± 0.031 |
| ERNSKKKRKRRL | 0.701 ± 0.08 |
| LHCRFDCTPFPY | 0.67 ± 0.012 |
| NLPLPPSPFALP | 0.733 ± 0.053 |
| LPAPARPPLVCS | 0.605 ± 0.048 |
| PKRTTHIGRIHE | 0.6875 ± 0.006 |
| NKKEYHDRKKKS | 0.619 ± 0.045 |
| IKRVPRRSEYRG | 0.633 ± 0.043 |
| VVLGESSGGVGV | 0.643 ± 0.097 |
| KRGKNKKRKQKK | 0.716 ± 0.0076 |
| PSTPLPHLTRPS | 0.677 ± 0.07 |
| PFPPRRPSATTL | 0.727 ± 0.045 |
| NGGRCRIARVLE | 0.679 ± 0.023 |
| KKKREKKKENTK | 0.7108 ± 0.0067 |
| EKQKNLPQEAKQ | 0.7 ± 0.02 |
| PKSRTLKDITIF | 0.684 ± 0.024 |
| IPCLPHPSLPPQ | 0.757 ± 0.039 |
| RRKLMLWTSKLE | 0.705 ± 0.05 |
| SMKAYRTLKTRL | 0.636 ± 0.075 |
| RVLDNYLTDYCL | 0.675 ± 0.061 |

| Sequence | protein stability index |
| --- | --- |
| GQCHYSSFPVRQ | 0.732 ± 0.011 |
| RLWPPGGEFRLV | 0.719 ± 0.078 |
| SRRGVVGLRVGI | 0.674 ± 0.033 |
| HLCVDHLGCHSF | 0.703 ± 0.048 |
| DVLGCFDYLLFR | 0.623 ± 0.03 |
| PGIGMVCAVAEG | 0.687 ± 0.0082 |
| YIDDGVVENVRV | 0.681 ± 0.02 |
| TRKFATPRITVV | 0.6939 ± 0.0038 |
| WVTSSTRGRSGS | 0.644 ± 0.033 |
| SFPYPHRDLVTP | 0.7114 ± 0.0016 |
| RFSMVVVERYSC | 0.577 ± 0.0062 |
| RGGWYLQKAITP | 0.716 ± 0.047 |
| PPTPRALFPPLP | 0.745 ± 0.049 |
| EFLGTVRSVWRK | 0.669 ± 0.086 |
| SGFLPPRFLSPS | 0.6895 ± 0.0012 |
| VHSMSRTFARPV | 0.683 ± 0.051 |
| VVGAVFFGCRLL | 0.6 ± 0.15 |
| WDGWPTRAGGTG | 0.7141 ± 0.0069 |
| PPPPPPPHSPPS | 0.664 ± 0.035 |
| TRSDILGAERWG | 0.6794 ± 0.0033 |
| CGAGIYTRCTGR | 0.6613 ± 0.001 |
| FLQIPVQILPDP | 0.705 ± 0.027 |
| RDPPLPRRLPSL | 0.706 ± 0.058 |
| DKFEEENIKKKK | 0.74 ± 0.026 |
| IKSTYRNPLPPL | 0.657 ± 0.038 |

| Sequence | protein stability index |
| --- | --- |
| RPIPMEGAYYLV | 0.693 ± 0.027 |
| PSRPSPSPHLPL | 0.849 ± 0.011 |
| VASDGGYGYLRF | 0.797 ± 0.077 |
| LPLSRPPLPPPL | 0.786 ± 0.031 |
| YTTLLVSTNRLS | 0.477 ± 0.082 |
| FHTLCLGPCTVI | 0.675 ± 0.035 |
| DVGSRGPPHTDG | 0.687 ± 0.074 |
| LLPFHPPPPCPP | 0.733 ± 0.033 |
| KKKKKSEIPKIT | 0.686 ± 0.084 |
| RPAPPPHPLSPV | 0.7 ± 0.031 |
| GMRGGGGWCRGW | 0.671 ± 0.043 |
| FTWRTIRPRCQW | 0.7184 ± 0.005 |
| VRNPPPLTRTRP | 0.687 ± 0.0097 |
| PSHVFSDCIAPP | 0.696 ± 0.011 |
| VRVRGDPLVCPL | 0.592 ± 0.0096 |
| RFLVRSFIGWRG | 0.669 ± 0.031 |
| AAWLSQLNKVNV | 0.6679 ± 0.0014 |
| EGLNASGGGSGG | 0.644 ± 0.07 |
| AHVDWRLPEPNR | 0.7172 ± 0.0069 |
| FVSFTAVALFFG | 0.567 ± 0.035 |
| LGFPLPRTPSIT | 0.792 ± 0.06 |
| GSVNGDTVGTQQ | 0.708 ± 0.013 |
| KKKKTKKKKINI | 0.605 ± 0.0077 |
| KKKKKKKRNGAP | 0.667 ± 0.05 |
| SLPCPISPPSFL | 0.697 ± 0.018 |

| Sequence | protein stability index |
| --- | --- |
| RCGGGKWGRGAE | 0.69683 ± 0.00067 |
| SSASDVYQVINS | 0.676 ± 0.009 |
| SGHRLTYEFFPT | 0.741 ± 0.074 |
| QGIKKKKEKERR | 0.768 ± 0.14 |
| SFMPFVLPLSSP | 0.71 ± 0.023 |
| KANIKGIKTRIT | 0.642 ± 0.076 |
| PLTSNTSPPPMT | 0.618 ± 0.072 |
| YLGCPSHLALPL | 0.721 ± 0.076 |
| IAKKNKTSKNRK | 0.703 ± 0.025 |
| SSPSFVVFPFVS | 0.685 ± 0.017 |
| FGVLGCGFLLSL | 0.688 ± 0.018 |
| IHSRAAVGEYTG | 0.6425 ± 0.0046 |
| DCWAGGGLCGWG | 0.719 ± 0.05 |
| VTAIVLSVLSGC | 0.556 ± 0.022 |
| PPPHPPPRLPSP | 0.604 ± 0.078 |
| LLPLGSLSLSPP | 0.7257 ± 0.0024 |
| ISPTTFSTHDRC | 0.665 ± 0.077 |
| GGVGRGGIRVMG | 0.629 ± 0.062 |
| GRIMRVPNENLT | 0.696 ± 0.22 |
| RRLNNTPPVENC | 0.753 ± 0.15 |
| RRGVAEGVDGEG | 0.615 ± 0.0071 |
| EEREGPVGKGGG | 0.708 ± 0.044 |
| APSPPVPTGPRP | 0.664 ± 0.059 |
| WHGDDSSIWQVG | 0.791 ± 0.036 |
| RWGGWFCRLPIG | 0.698 ± 0.05 |

| Sequence | protein stability index |
| --- | --- |
| QSYRGIGFRTTM | 0.607 ± 0.049 |
| SCFGVSRSAHFL | 0.728 ± 0.027 |
| PHSSPSHRLSLP | 0.722 ± 0.035 |
| GRFVTRAWARSW | 0.639 ± 0.018 |
| VCIGVGGGVLGL | 0.6746 ± 0.0036 |
| ISLWALSQLPVP | 0.79 ± 0.19 |
| RRPRKSAAGLRG | 0.768 ± 0.08 |
| PPAPRVSPPPPP | 0.712 ± 0.073 |
| PSGRRRWACARG | 0.694 ± 0.0097 |
| LPAPPTPRPAPP | 0.706 ± 0.016 |
| EGGCCRMVGVVK | 0.633 ± 0.0024 |
| ALRAGGRPYSVS | 0.716 ± 0.014 |
| RRVRGGAAEKET | 0.723 ± 0.1 |
| WSRPVTFRIGLW | 0.653 ± 0.017 |
| PPSPPPPTGLCL | 0.745 ± 0.078 |
| DASVIPAKPRRS | 0.69 ± 0.041 |
| AFNRYASRIQEV | 0.695 ± 0.02 |
| SPSLPSLNRCSL | 0.769 ± 0.016 |
| PPQHRNPAVRRH | 0.667 ± 0.023 |
| GDGWPTRSGGTG | 0.701 ± 0.01 |
| SPSRPQPPPLSA | 0.738 ± 0.061 |
| PWRLFVTSGSPA | 0.714 ± 0.048 |
| QKIREKKKRKKL | 0.622 ± 0.015 |
| PVPLLHPRSLSL | 0.781 ± 0.074 |
| HGYRWCLHARFG | 0.556 ± 0.058 |

| Sequence | protein stability index |
| --- | --- |
| PPLSLPLCLSPL | 0.6838 ± 0.0035 |
| RGIGIQSVAARN | 0.723 ± 0.094 |
| VLTGLLFRRPRS | 0.604 ± 0.0062 |
| PFPLSPPPPPLD | 0.761 ± 0.045 |
| LGGWLWSPGVVV | 0.6355 ± 0.0056 |
| VYSGYVFRKDGI | 0.695 ± 0.024 |
| GRGVVGLWVSGT | 0.699 ± 0.021 |
| GGRHARRGRRRR | 0.75 ± 0.11 |
| PLNQKPPDWPTQ | 0.734 ± 0.015 |
| VSCGGSARRASP | 0.704 ± 0.0078 |
| PYIPSSVSLRQD | 0.712 ± 0.0092 |
| KSKRKKKKQTKR | 0.653 ± 0.024 |
| LNWMVMLGHGAC | 0.5729 ± 0.0014 |
| FSGGGRGLGGEV | 0.684 ± 0.024 |
| FSLYSFSSSFSF | 0.677 ± 0.033 |
| PSPRPSPRPSPR | 0.692 ± 0.062 |
| PPSPAFTTHLPP | 0.576 ± 0.0064 |
| GINEGRAISDDW | 0.725 ± 0.021 |
| PPRPPPPPAHPP | 0.557 ± 0.029 |
| WYYTCSEFSIYN | 0.693 ± 0.0071 |
| GGGGGGGGAGGV | 0.6985 ± 0.0011 |
| RSDKRTRYRIII | 0.751 ± 0.17 |
| AVRPGEAGCAGL | 0.664 ± 0.12 |
| SIPVPFSFPLFI | 0.598 ± 0.0065 |
| GMTYWFCSFPFF | 0.686 ± 0.04 |

| Sequence | protein stability index |
| --- | --- |
| SPPPTPLPPPPP | 0.628 ± 0.094 |
| FCVFSDVSRFSY | 0.701 ± 0.082 |
| VGEAGTRASVPV | 0.665 ± 0.12 |
| KRRNKEHNKIRD | 0.652 ± 0.052 |
| IGCEVLQCRCVD | 0.672 ± 0.014 |
| RKINQKNNEKNS | 0.648 ± 0.0037 |
| FGAEWRGVLSGC | 0.773 ± 0.013 |
| PPPPHYPHHTAS | 0.738 ± 0.029 |
| EKCIGKRGLTKY | 0.703 ± 0.022 |
| TTTYQLSQTITI | 0.646 ± 0.041 |
| GGGGGAKGEGVR | 0.733 ± 0.1 |
| PRFPYGPFDFSI | 0.669 ± 0.046 |
| SLSVRTIFTSRS | 0.71 ± 0.071 |
| PPPHPLPRPLPT | 0.853 ± 0.051 |
| IRPFSPAPPRYP | 0.722 ± 0.075 |
| GIGLSVGDVLGC | 0.73 ± 0.037 |
| GGCSDKVVRGGV | 0.695 ± 0.014 |
| PPPAPPPPPPLP | 0.7026 ± 0.0022 |
| WNLESKTEARTR | 0.704 ± 0.049 |
| AGRRVPVMMYGS | 0.691 ± 0.022 |
| PLPSLLLLPPFP | 0.701 ± 0.058 |
| GGGGPGLEARSL | 0.618 ± 0.0078 |
| GIRAEPSGGQAE | 0.692 ± 0.057 |
| PSLHPLSPSPPA | 0.686 ± 0.041 |
| HRRCPVPRGSSP | 0.704 ± 0.019 |

| Sequence | protein stability index |
| --- | --- |
| GGGGRGMWGIFG | 0.676 ± 0.045 |
| SAPLVHASSSPQ | 0.722 ± 0.042 |
| PSLPPPFPPLRP | 0.7044 ± 0.0013 |
| SYVLIYAPLSSL | 0.661 ± 0.036 |
| SPPPPPAPHPCP | 0.686 ± 0.03 |
| GPSVWRPSESLV | 0.748 ± 0.03 |
| VFRSRTSSLFTP | 0.6794 ± 0.0058 |
| GRPGPSSPFLLP | 0.702 ± 0.052 |
| LGAAFHSLTRLV | 0.617 ± 0.066 |
| ENQGEKQKKKKR | 0.685 ± 0.013 |
| PLPSHSRSRHPR | 0.744 ± 0.075 |
| AFLTSYHPPPLP | 0.69 ± 0.059 |
| PIWRLVMRCCRS | 0.575 ± 0.022 |
| GHLRPFPPPLLP | 0.748 ± 0.089 |
| KPKANTEKIPIQ | 0.68 ± 0.018 |
| VGFGLIVWSSGW | 0.529 ± 0.0077 |
| SQLAGPPLPPPT | 0.751 ± 0.021 |
| SASPHSPSPPSR | 0.627 ± 0.079 |
| LIFDISDLVWYI | 0.636 ± 0.031 |
| ILIYFWFSFFFF | 0.753 ± 0.013 |
| PSRLAPPSPSIP | 0.694 ± 0.051 |
